For this assay, the target named is hRLuc-connector-DhaA.H272F-Flag fusion protein with covalently bound biotin-C18H32O4- (after treatment with biotin-C18H32O4-Cl) (Renilla; Rhodococcus rhodochrous) (UniProt P0A3G2). As to the kind of experiment: capture on streptavidin-coated 96 well plate after treatment with biotin-C18H32O4-Cl, read as luciferase activity.

With “streptavidin (SA), coated on 96 well plates (Pierce) or on MagnaBind beads (Pierce #21344) (from UniProt P22629 37-163)”, the efficiency of capturing (percent of Renilla luciferase activity added to the plate) is above 50%.
